First the molecules themselves.
B1: bovine papillomavirus type 1 (BPV1) L2 minor capsid protein (other)
chain: MSARKRVKRASAYDLYRTCKQAGTCPPDVIPKVEGDTIADKILKFGGLAIYLGGLGIGTWSTGRVAAGGSPRYTPLRTAGSTSSLASIGSRAVTAGTRPSIGAGIPLDTLETLGALRPGVYEDTVLPEAPAIVTPDAVPADSGLDALSIGTDSSTETLITLLEPEGPEDIAVLELQPLDRPTWQVSNAVHQSSAYHAPLQLQSSIAETSGLENIFVGGSGLGDTGGENIELTYFGSPRTSTPRSIASKSRGILNWFSKRYYTQVPTEDPEVFSSQTFANPLYEAEPAVLKGPSGRVGLSQVYKPDTLTTRSGTEVGPQLHVRYSLSTIHEDVEAIPYTVDENTQGLAFVPLHEEQAGFEEIELDDFSETHRLLPQNTSSTPVGSGVRRSLIPTQEFSATRPTGVVTYGSPDTYSASPVTDPDSTSPSLVIDDTTTTPIIIIDGHTVDLYSSNYTLHPSLLRKRKKRKHA
notes: mature; Expressed from recombinant Semliki Forest virus in BHK-21 or BPHE-1 cells; also called BPV L2

Assay [1] deals with T1, bovine papillomavirus type 1 (BPV1) L1 major capsid protein (bovine papillomavirus type 1 (BPV1), UniProt P03103 1-495).
T1 construct: mature; Expressed from recombinant Semliki Forest virus in BHK-21 or BPHE-1 cells; self-assembles into VLPs; also called BPV L1
Briefly: co-expression from recombinant SFV in BHK-21 cells; heading of the section.

Assay [2] deals with B1. The experiment in a line: coimmunoprecipitation; cosedimentation in sucrose gradients.

Take B1: the binding result in assay [1] is “binds”.

B2: BPV E2 protein (full-length 48 kD form) (other)
chain: METACERLHVAQETQMQLIEKSSDKLQDHILYWTAVRTENTLLYAARKKGVTVLGHCRVPHSVVCQERAKQAIEMQLSLQELSKTEFGDEPWSLLDTSWDRYMSEPKRCFKKGARVVEVEFDGNASNTNWYTVYSNLYMRTEDGWQLAKAGADGTGLYYCTMAGAGRIYYSRFGDEAARFSTTGHYSVRDQDRVYAGVSSTSSDFRDRPDGVWVASEGPEGDPAGKEAEPAQPVSSLLGSPACGPIRAGLGWVRDGPRSHPYNFPAGSGGSILRSSSTPVQGTVPVDLASRQEEEEQSPDSTEEEPVTLPRRTTNDGFHLLKAGGSCFALISGTANQVKCYRFRVKKNHRHRYENCTTTWFTVADNGAERQGQAQILITFGSPSQRQDFLKHVPLPPGMNISGFTASLDF
notes: mature; BPHE-1 cells express three forms of E2; SFV-E2 gives only the 48 kD form
As for B2, in assay [2], the binding result is given as “no binding”.

(Values after US20030207446A1 (US Dept. of Health and Human Services, published 2003).)
